From US7998940B2, “Aptamers to von Willebrand factor and their use as thrombotic disease therapeutics” (Archemix Corp., priority 2004, dated 2011)
Where two headings read alike, the source gives them in different places. Oligonucleotides are written 5' to 3', each unit as a sugar letter and its base; * is a phosphorothioate linkage, no mark a phosphodiester; rarer units and linkages stand in square brackets, end groups in braces. Plain capitals give the bases only. d = 2'-deoxy (DNA); r = 2'-OH (RNA); f = 2'-fluoro

What was measured:
[1] = tested on: full length human vWF binding to lyophilized platelets; test: Full length human von Willebrand Factor platelet binding assay (FACS); format: cell-based; settings: 5 nM full length human vWF, lyophilized platelets, botrocetin; for Inhibition of full length hVWF binding in FACS assay, IC50 range: both bounds in nM
Description: The amount of vWF bound to fixed platelets can be measured with an antibody to vWF. The fluorescence signal from bound antibody incubated with a fluorescein conjugated secondary antibody is then detected and quantified by flow cytometry. The ability of an aptamer of the invention to block vWF binding to platelets is correlated with a reduction in fluorescence signal.
Aptamer potency to block human vWF binding to lyophilized platelets was assessed by flow cytometric analysis. Titrations of aptamers (0 nM, 0.1 nM to 1000 nM) were pre-incubated briefly with 5 nM of full length human vWF in FACS buffer (PBS plus 0.5% bovine serum albumin) at room temperature in a volume of 50 uL. Another 50 uL containing 5 uL of lyophilized platelets plus 1 uL of 0.1 U/uL of botrocetin in FACS buffer was added to aptamer/vWF. This reaction was allowed to proceed for 15 minutes at 37 degrees C. after which 200 uL of FACS buffer was added. Platelets were collected by a 6 minute spin at 1470 RCF and the supernatant was discarded. The pellets were resuspended in 100 uL of FACS buffer containing a 1:100 dilution of anti-vWF antibody and were incubated at room temperature for 30 minutes. After dilution with 200 uL of FACS buffer, the platelets were spun at 1470 RCF for 6 minutes and the supernatant was discarded. The pellets were resuspended in a 1:100 solution of anti-IgG2a-FITC antibody and were incubated in the dark for 30 minutes at room temperature. The entire 100 uL was diluted into 200 uL of FACS buffer and analyzed immediately by flow cytometric analysis in the FACSCAN. Artifactual data from contaminating debris was eliminated from the analysis by drawing a gate around the population of single and aggregated platelets. Mean fluorescent intensity (“MFI”) readings were quantified for each sample analyzed by flow cytometry. Background MFI was subtracted from all data points. Percent inhibition was reported by calculating the percent value of binding of full length human vWF to platelets in the presence of aptamer at a given concentration relative to binding in the absence of any aptamer (see FIG. 7). IC50 values were determined by fitting the percent inhibition of vWF binding to platelets as a function of aptamer concentration to the equation: % inhibition=% inhibitionmax/(1+IC50/aptamer conc.)

[2] = tested on: full length human vWF (SEQ ID NO 7); test: dot blot KD determination and extent of binding, full length human vWF; settings: rRdY minimers; 8 point titration 0-300 nM; read-out: Full length human vWF KD;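 also: dot blot binding of aptamers to full length human vWF across a protein titration, incubated 30 minutes at room temperature in 1x DPBS with BSA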
Description: Based on this initial screen, KDs were determined for 3 of the vWF dependent binding sequences using the dot blot assay. […] A 12 point protein titration was used in the dot blot assay (300 nM, 100 nM, 30 nM, 10 nM, 3 nM, 1 nM, 300 pM, 100 pM, 30 pM, 10 pM, 3 pM, 0 pM) in 1×DPBS plus 0.1 mg/mL BSA at room temperature for 30 minutes.
An 8 point protein titration was used in the dot blot binding assay (100n M, 30 nM, 10 nM, 3 nM, 1 nM, 300 pM, 100 pM, 0 pM)) in 1× Dulbecco's PBS containing 0.1 BSA (final volume of 50 uL) for 30 minutes at room temperature.

full length human vWF = test: 3-point dot blot screen, full length human vWF; format: binding; settings: 20 nM full length human vWF, ratio of fraction of aptamer bound with target protein to fraction bound without protein
Text: When a significant positive ratio of binding of DNA in the presence of human or rabbit vWF A1 domain versus in the absence of protein was seen, the pools were cloned using the TOPO TA cloning kit (Invitrogen Cat. #45-0641, Carlsbad, Calif.) according to the manufacturer's instructions. Round 7 and 11 pool templates were cloned and sequenced (218 total sequences), producing 146 unique clones within 12 sequence families of which sequences from six families show vWF target binding activity. All unique clones were assayed twice in a 3-point dot blot screen (no protein target control, 20 nM full length human vWF (Calbiochem Cat. #681300, La Jolla, Calif.), or 20 nM rabbit vWF A1 domain. The data is presented in the third and fourth columns of Table 17 below as the ratio of the fraction of the aptamer bound to the nitrocellulose in the presence of the target protein to the fraction of aptamer bound in the absence of the target protein.

[3] = tested on: rabbit vWF A1 domain (SEQ ID NO 6); test: 3-point dot blot screen, rabbit vWF A1 domain; format: binding; settings: 3-point dot blot screen, 20 nM rabbit vWF A1 domain; ratio of fraction of aptamer bound with target protein to fraction bound without protein
Summary of the method: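 Rabbit vWF A1 domain binding was screened by dot blot using three conditions: no target protein, human vWF, and rabbit vWF A1 domain at 100 nM (20 nM in the screen run twice). Radiolabeled aptamer bound to nitrocellulose was quantified, and results are expressed as the ratio of bound fraction with protein to bound fraction without protein.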

[4] = read-out: Inhibition of full length hVWF binding in FACS assay, Average IC50
[5] = units in the cell: lower bound pM, upper bound nM, read-out: Inhibition of full length hVWF binding in FACS assay, IC50 range

rabbit vWF A1 domain (SEQ ID NO 6), sequence (as listed by the source): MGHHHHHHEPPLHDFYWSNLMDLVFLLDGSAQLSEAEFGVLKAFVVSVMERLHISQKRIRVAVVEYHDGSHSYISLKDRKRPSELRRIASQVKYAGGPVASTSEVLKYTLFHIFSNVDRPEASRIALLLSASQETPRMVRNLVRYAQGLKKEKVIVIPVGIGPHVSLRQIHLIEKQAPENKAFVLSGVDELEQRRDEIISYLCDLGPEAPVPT

| Molecule | IC50 [1, 4] | Screen- Human/No Protein (full length human vWF) | Screen Rabbit/No Protein [3] | other results |
| --- | --- | --- | --- | --- |
| GGACCACCCUCGCAAGCAUUGAGAAAUGACUUGUGCCGCUGGUCC (rGrGrAfCfCrAfCfCfCfUfCrGfCrArArGfCrAfUfUrGrArGrArArAfUrGrAfCfUfUrGfUrGfCfCrGfCfUrGrGfUfCfC) [SEQ ID NO 172, minimized rRfY aptamer] | 4300 pM | – | – | – |
| GGACCACCCUCGCAAGCAUUUUAAGAAUGACUUGUGCCGCUGGUCC (rGrGrAfCfCrAfCfCfCfUfCrGfCrArArGfCrAfUfUfUfUrArArGrArAfUrGrAfCfUfUrGfUrGfCfCrGfCfUrGrGfUfCfC) [SEQ ID NO 169, minimized rRfY aptamer] | 6900 pM | – | – | IC50 [1, 5]: 103 to 17000 pM |
| GGAGCCACACGACATTGGCGAGAGCCACGCATGGCTCC (chemistry not given here) [SEQ ID NO 194, minimized rRdY aptamer] | – | – | – | Inhibition of full length hVWF binding in FACS assay, IC50 range [1]: no activity |
| GGAGCCACACGACATTGGCGGGTTGTAATTACCACGCATGGCTCC (rGrGrArGdCdCrAdCrAdCrGrAdCrAdTdTrGrGdCrGrGrGdTdTrGdTrArAdTdTrAdCdCrAdCrGdCrAdTrGrGdCdTdCdC) [SEQ ID NO 189, minimized rRdY aptamer] | 1100 pM | – | – | IC50 [1, 5]: 564 to 1600 pM; Kd [2]: 1 nM |
| GGAGCCACACGAGAGTGGCGGGTTGTAATTACCACGCATGGCTCC (chemistry not given here) [SEQ ID NO 196, minimized rRdY aptamer] | – | – | – | Inhibition of full length hVWF binding in FACS assay, IC50 range [1]: no activity |
| GGAGCGCACTCAGCCACACGACATTGGCGGGTTGTAATTACCACGCATGGCTG (chemistry not given here) [SEQ ID NO 186, minimized rRdY aptamer] | 1300 pM | – | – | IC50 [1, 5]: 971 to 2200 pM |
| GGAGCGCACTCAGCCACGGGGTGGGTAGACGGCGGGTATGTGGCT (chemistry not given here) [SEQ ID NO 177, minimized rRdY aptamer] | 3000 pM | – | – | – |
| GGAGCGCACUCAGCCACCCUCGCAAGCAUUUUAAGAAUGACUUGUGCCGCUGGCU G (rGrGrArGfCrGfCrAfCfUfCrArGfCfCrAfCfCfCfUfCrGfCrArArGfCrAfUfUfUfUrArArGrArAfUrGrAfCfUfUrGfUrGfCfCrGfCfUrGrGfCfUrG) [SEQ ID NO 165, minimized rRfY aptamer] | 6400 pM | – | – | IC50 [1, 5]: 562 to 14400 pM |
| GGAGCTCCAGTGTTTTATCTAATAACCGTGCGGTGCCTCCGTGAGCTCC (chemistry not given here) [SEQ ID NO 209, minimized DNA aptamer] | – | – | – | Inhibition of full length hVWF binding in FACS assay, IC50 range [1]: no activity |
| GGAGCTGCGGTTTGGTCGACGTCAGCTCC (DNA, backbone not given here) [SEQ ID NO 210, minimized DNA aptamer] | – | – | – | Inhibition of full length hVWF binding in FACS assay, IC50 range [1]: no activity |
| GGTAGCGACTCTGTGGAGCTGCGGTTTGG (DNA, backbone not given here) [SEQ ID NO 211, minimized DNA aptamer] | – | – | – | Inhibition of full length hVWF binding in FACS assay, IC50 range [1]: no activity |
| AMX238.F5: DNA SELEX 2 aptamer clone (nucleic acid, DNA, backbone not given here, DNA SELEX 2 aptamer clone) DNA: CTACCTACGATCTGACTAGCGGAATGAGAAGCTGGTGGATTGCTCAGGTCTGCTGGCTGCTTACTCTCATGTAGTTCC | – | 1.05 | 4.40 | – |
| AMX.236.G1 (nucleic acid, DNA, backbone and methylation of C not given here) CTACCTACGATCTGACTAGCCTCAGATTGACTCCGGCTGACTTGTTTTAATCTTCTGAGTGCTTACTCTCATGTAGTTCC | 46000 pM | – | – | – |
| AMX236.C1: DNA SELEX 2 aptamer clone (nucleic acid, DNA, backbone not given here, DNA SELEX 2 aptamer clone) CTACCTACGATCTGACTAGCGGAATGAGAATGTTGGTGGATTGCTCAGGTCTGCTGGCTGCTTACTCTCATGTAGTTCC | – | 1.03 | 3.28 | – |
| AMX237.B12: DNA SELEX 2 aptamer clone (nucleic acid, DNA, backbone not given here, DNA SELEX 2 aptamer clone) DNA: CTACCTACGATCTGACTAGCGGAATGAGAATGCAGGTGGATTGCTCAGGTCTGCTGGCTGCTTACTCTCATGTAGTTCC | – | 1.13 | 4.67 | – |
| AMX237.C1: DNA SELEX 2 aptamer clone (nucleic acid, DNA, backbone not given here, DNA SELEX 2 aptamer clone) DNA: CTACCTACGATCTGACTAGCGGAATGAGGATGCTGGTGGATTGCTCAGGTCTGCTGGCTGCTTACTCTCATGTAGTTCC | – | 0.76 | 3.47 | – |
| AMX236.A11: DNA SELEX 2 aptamer clone (nucleic acid, DNA, backbone not given here, DNA SELEX 2 aptamer clone) CTACCTACGATCTGACTAGCTTGGTAGCGACTCTGTGGAGCTGCGGTCTGGCCGACGTCAGCTTACTCTCATGTAGTTCC | – | 2.02 | 2.02 | – |
| AMX236.G4: DNA SELEX 2 aptamer clone (nucleic acid, DNA, backbone not given here, DNA SELEX 2 aptamer clone) CTACCTACGATCTGACTAGCTTGGTAGCGACTTTGTGGAGATGCGGTTTGGTTGACGTCAGCTTACTCTCATGTAGTTCC | – | 1.70 | 1.72 | – |
| AMX237.H10: DNA SELEX 2 aptamer clone (nucleic acid, DNA, backbone not given here, DNA SELEX 2 aptamer clone) DNA: CTACCTACGATCTGACTAGCTTGGTAGCGACTCAGAGGAGCTGCGGTTTGGTCGACGTCAGCTTACTCTCATGTAGTTCC | – | 1.71 | 1.94 | – |
| AMX236.E6: DNA SELEX 2 aptamer clone (nucleic acid, DNA, backbone not given here, DNA SELEX 2 aptamer clone) CTACCTACGATCTGACTAGCTTGGTAGCGACCCTGTGGAGCTGCGGTTTGGTCGACGTCAGCTTACTCTCATGTAGTTCC | – | 1.31 | 1.49 | – |
| AMX237.D5: DNA SELEX 2 aptamer clone (nucleic acid, DNA, backbone not given here, DNA SELEX 2 aptamer clone) DNA: CTACCTACGATCTGACTAGCTTGGTAGCGACACTGTGGAGCTGCGGTTTGGTTGACGTCAGCTTACTCTCATGTAGTTCC | – | 1.41 | 1.48 | – |
| AMX237.H8: DNA SELEX 2 aptamer clone (nucleic acid, DNA, backbone not given here, DNA SELEX 2 aptamer clone) DNA: CTACCTACGATCTGACTAGCTTGGTAGCGACTTTGTGGAGCTGCGGTTTGGTCGACATCAGCTTACTCTCATGTAGTTCC | – | 1.21 | 1.41 | – |
| AMX236.C12: DNA SELEX 2 aptamer clone (nucleic acid, DNA, backbone not given here, DNA SELEX 2 aptamer clone) CTACCTACGATCTGACTAGCTTGGTAGCGACTCCGTGGAGCTGCGGTTTGGTCGACGTCAGCTTACTCTCATGTAGTTCC | – | 1.99 | 2.24 | – |
